The results in this text go back to patent US20210002623A1, “AMINOPEPTIDASE AND ITS USES” (Centre national de la recherche scientifique, priority 2017, published 2021).

Data set [1] is described as follows: Effect of temperature on MjTET activity. The following applies: Leu-pNA. Type of data set: biochemical. The protocol: Different temperatures ranging from 20 to 90° C. were tested on MjTET activity. Incubation was done in 50 mM CHES, 150 mM KCl, 0.1 mM CoCl2, pH 8.5 in presence of 4 μg/mL of protein and 5 mM Leu-pNA for 5 min. Absorbance of released pNA was measured at 405 nm.

Data set [2] is described as follows: Effect of temperature on MjTET stability (remaining aminopeptidase activity after incubation at 85° C.). In kind it is physicochemical. The following applies: incubated at 85° C.; remaining activity on Leu-pNA. On the procedure:
The effect of temperature on MjTET stability was assayed by incubating the enzyme (160 μg/ml) at 85° C. Aliquot of 10 μl was taken at different time intervals, and the remaining aminopeptidase activity was assayed against 5 mM Leu-pNA in 390 μl of 50 mM CHES, 150 mM KCl, 0.1 mM CoCl2, pH 8.5 incubated at 85° C. for 5 min. Enzymatic stability of MjTET was evaluated by measuring the quantity of produced pNA at 405 nm.

Data set [3] can be described thus: Effect of pH on MjTET activity. Type of data set: biochemical. The note with it: pH 6 and 10.5; Leu-pNA, 75° C. The protocol:
The effect of pH on MjTET activity was determined in pH range varying from 6 to 11. The buffers used were: PIPES, pH 6-7.5; CHES, pH 8.2-10 and CAPS, pH 10.5-11. All buffers were used at 50 mM concentration in presence of 150 mM KCl, 0.1 mM CoCl2, 4 μg/mL of MjTET and 5 mM Leu-pNA as substrate. The given pH values are at 75° C. Incubation was done at 75° C. for 5 min and the quantity of produced pNA was evaluated by measuring the absorbance at 405 nm.

The subject of data set [4] is H-Trp-Phe-Tyr-Ser(PO3H2)-Pro-Arg-pNA. As to the kind of experiment: Hydrolysis of longer peptide substrates followed by reverse phase HPLC. In kind it is biochemical. The following applies: after 5 minutes, 85° C. On the procedure:
The hydrolytic activity of MjTET on synthetic chromogenic and fluorogenic compounds was determined by using different aminoacyl-pNAs and aminoacyl-AMCs through the following procedure. Reactions were initiated by addition of 4 μg/mL of enzyme to a pre-warmed mixture containing 5 mM of the chromogenic or fluorogenic compound in 50 mM CHES, 150 mM KCl and 0.1 mM CoCl2, pH 8.2, in a total volume of 400 μl. Incubation was performed at 75° C. for 5 min. The quantity of liberated pNA was evaluated by measuring the absorbance at λ=405 nm in a JASCO V-630 spectrophotometer, and for AMC by measuring the fluorescence using excitation and emission wavelengths of 360 and 440 nm, respectively in a JASCO FP-8500 spectrofluorometer. Three replicates and two enzyme blanks were assayed for each experimental point. Additional enzymatic studies were performed in order to investigate MjTET capacities to hydrolyze longer substrates (H-Trp-Phe-Tyr-Ser(PO3H2)-Pro-Arg-pNA (SEQ ID NO: 3), H-Met-Trp-Ala-Glu-Asn-Lys (SEQ ID NO:4), H-Tyr-Asp-Thr-Ser-Ile-Val-Gln-Arg (SEQ ID NO:5), H-Asp-Ala-Tyr-Pro-Ser (SEQ ID NO: 6) and H-Glu-Gly-Ile. 2 μg/ml (final concentration) of MjTET were added to a pre-warmed mixture of 0.75 mM peptide, 50 mM CHES, 150 mM KCl, 0.1 mM CoCl2, pH 8.5. To avoid water evaporation, 20 μl of mineral oil were added on the top of the total volume. […]

Data set [5] concerns peptide YFLMNENRYTSWNSE (SEQ ID NO: 2). As to the kind of experiment: Time necessary to hydrolyse 50% of a 15 amino acid peptide at different temperatures. Type of data set: biochemical. On the procedure:
In order to evaluate the effect of the temperature on the activity of MjTET, the inventors evaluated the relative amount of intact peptides further to an incubation with the TET protein at different temperatures.
The inventors have measured the relative amount of intact peptide further to an incubation with MjTET.
MjTET activity was measured on the following peptide: YFLMNENRYTSWNSE (SEQ ID NO: 2). The inventors evaluated the time necessary to hydrolyse 50% of the peptide at different tempertaures

Data set [6] is described as follows: Hydrolytic activity on synthetic chromogenic and fluorogenic monoacyl compounds. Type of data set: biochemical. The note with it: for cleavage of tryptophan from substrate Nt end: FIG. 4; for amidolytic activity against aromatic amino acids: phenylalanine and tyrosine, MjTET compared with PhTET2 (FIG. 4). The protocol: The hydrolytic activity of MjTET on synthetic chromogenic and fluorogenic compounds was determined by using different aminoacyl-pNAs and aminoacyl-AMCs through the following procedure. Reactions were initiated by addition of 4 μg/mL of enzyme to a pre-warmed mixture containing 5 mM of the chromogenic or fluorogenic compound in 50 mM CHES, 150 mM KCl and 0.1 mM CoCl2, pH 8.2, in a total volume of 400 μl. Incubation was performed at 75° C. for 5 min. The quantity of liberated pNA was evaluated by measuring the absorbance at λ=405 nm in a JASCO V-630 spectrophotometer, and for AMC by measuring the fluorescence using excitation and emission wavelengths of 360 and 440 nm, respectively in a JASCO FP-8500 spectrofluorometer. Three replicates and two enzyme blanks were assayed for each experimental point. Additional enzymatic studies were performed in order to investigate MjTET capacities to hydrolyze longer substrates (H-Trp-Phe-Tyr-Ser(PO3H2)-Pro-Arg-pNA (SEQ ID NO: 3), H-Met-Trp-Ala-Glu-Asn-Lys (SEQ ID NO:4), H-Tyr-Asp-Thr-Ser-Ile-Val-Gln-Arg (SEQ ID NO:5), H-Asp-Ala-Tyr-Pro-Ser (SEQ ID NO: 6) and H-Glu-Gly-Ile. 2 μg/ml (final concentration) of MjTET were added to a pre-warmed mixture of 0.75 mM peptide, 50 mM CHES, 150 mM KCl, 0.1 mM CoCl2, pH 8.5. To avoid water evaporation, 20 μl of mineral oil were added on the top of the total volume. The reaction incubation was done at 85° C. during 6 min. Aliquot of 80 μl was then removed and added to 220 μl of 2% acetonitrile (ACN), 0.1% trifluoroacetic acid (TFA). Proteins were removed by centrifugation at 13,000 rpm during 15 min. 100 μl of the supernatant were retrieved and injected on Nova-Pak C18 column, (4 μm, 3.9×300 mm, (Waters)) in a HPLC purifier system (PerkinElmer), equilibrated with 2% ACN, 0.1% TFA. […] Chromatographic runs were carried out at room temperature.

B1: MjTET: TET aminopeptidase (M42 family, dodecameric) from Methanocaldococcus jannaschii comprising SEQ ID NO: 1 (protein, listed as Methanococcus jannaschii)
chain: MSVVEYLKKLSKLHGISGREDSVREFMKKELEKYCDSVEIDNFGNLIAKRGNKGKKIMIAAHMDEIGLMVKYIDDNGFLKFTKIGGIYDPTILNQKVVVHGSKGDLIGVLGSKPPHRMKEEEKTKIIKYEDMFIDIGAESREEAIEMGVNIGTWVSFLSEVYDLGKNRLTGKAFDDRVGCAVLLEVMKRLSEEDIDCQVYAVGTVQEEVGLKGARVSAFKINPDVAIALDVTIAGDHPGIKKEDAPVDLGKGPVVGIVDASGRGLIAHPKVLDMIKAVSEKYKIDVQWEVGEGGTTDATAIHLTREGIPTGVISVPARYIHTPVEVIDKRDLEKTVELVYNCIKEVNNFF
As for B1, in data set [1] (pH 8.5, 0.1 mM CoCl2, 20 to 90° C. tested), the “temperature of maximal LAP activity” value stood at 85 °C. Also, the “LAP activity in mesophilic conditions” value in data set [1] (under 50° C.) was “No activity was detected”. Further, the half-life entry in data set [2] is recorded as “eight”. In data set [3], the “percentage of LAP activity maintained” value is “more than 50%”. In addition, the “hydrolysis of the original peptide substrate” value in data set [4] was “almost hydrolyzed”. The “Time necessary to hydrolyse 50% of the peptide” value is recorded as 75 h in data set [5] (20 ° C.); 55 h in data set [5] (30 ° C.); 3,9 h in data set [5] (40 ° C.); 1.3 h in data set [5] (50 ° C.); 1 h in data set [5] (60 ° C.); 0.6 h in data set [5] (70 ° C.). Besides, in data set [5] (80 ° C.), the “Time necessary to hydrolyse 50% of the peptide” value was 0.25 h. Also, the “cleavage of tryptophan from substrate Nt end” value in data set [6] is “unable to cleave”. For the same molecule, the amidolytic activity result is on record as “optimal amidolytic activity” in data set [6] (against Leu-pNA, 75° C., pH 8.2); “significant amidolytic activities” in data set [6] (against hydrophobic residues such as phenylalanine, methionine and tyrosine); “no activity was detected” in data set [6] (aspartate, glutamate, cysteine and proline monoacyl substrates); “no activity was detected” in data set [6] (blocked residues and D-stereo configuration: Ac-Leu-pNA and D-Leu-pNA); “Reduced activities” in data set [6] (polar and positively charged residues). For the same molecule, the “amidolytic activity against aromatic amino acids” value in data set [6] is listed as “more efficient”.

B2: PhTET2: leucyl aminopeptidase TET complex of Pyrococcus horikoshii with broad activity against neutral amino acids (protein)
chain: MEVRNMVDYELLKKVVEAPGVSGYEFLGIRDVVIEEIKDYVDEVKVDKLGNVIAHKKGEGPKVMIAAHMDQIGLMVTHIEKNGFLRVAPIGGVDPKTLIAQRFKVWIDKGKFIYGVGASVPPHIQKPEDRKKAPDWDQIFIDIGAESKEEAEDMGVKIGTVITWDGRLERLGKHRFVSIAFDDRIAVYTILEVAKQLKDAKADVYFVATVQEEVGLRGARTSAFGIEPDYGFAIDVTIAADIPGTPEHKQVTHLGKGTAIKIMDRSVICHPTIVRWLEELAKKHEIPYQLEILLGGGTDAGAIHLTKAGVPTGALSVPARYIHSNTEVVDERDVDATVELMTKALENIHELKI
Consider B2, for which the “Time necessary to hydrolyse 50% of the peptide” value in data set [5] (40 ° C.) was determined as 0.5 h. In data set [6], the “hydrolytic activity toward N-terminal phenylalanine residues” value was “devoid of hydrolytic activity”, the “cleavage of tryptophan from substrate Nt end” value is recorded as “unable to cleave” and the “amidolytic activity against aromatic amino acids” value was “weak activity”.
